Reference: article PMC2818375

Biological target: M2 muscarinic receptor fused to CFP (M2R-CFP) (UniProt P08172)
Experiment: FRET or BRET

UniProt P08172, sequence (P08172 whole entry, the tested form may be a part): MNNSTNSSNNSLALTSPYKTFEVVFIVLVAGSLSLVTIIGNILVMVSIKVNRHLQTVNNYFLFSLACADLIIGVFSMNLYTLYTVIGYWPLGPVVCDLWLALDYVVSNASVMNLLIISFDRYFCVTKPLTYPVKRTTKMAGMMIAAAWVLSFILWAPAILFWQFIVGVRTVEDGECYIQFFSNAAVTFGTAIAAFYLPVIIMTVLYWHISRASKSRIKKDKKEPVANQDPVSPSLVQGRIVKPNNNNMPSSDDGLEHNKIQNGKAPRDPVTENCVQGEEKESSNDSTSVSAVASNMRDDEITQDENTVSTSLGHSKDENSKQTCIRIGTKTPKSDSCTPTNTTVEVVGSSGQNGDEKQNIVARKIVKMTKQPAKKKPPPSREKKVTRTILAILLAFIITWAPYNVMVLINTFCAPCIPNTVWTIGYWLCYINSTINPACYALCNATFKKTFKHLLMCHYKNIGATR

## GBR1R2-YFP chimera (N-terminal and transmembrane domains of GBR1, C-terminal domain of GBR2) (receptor)
  %FRET: 6 %FRET
